Biological target: Fibronectin from human plasma (human) (UniProt P02751)
Test: cell-based or functional assay

Sequence of Fibronectin from human plasma (human) (P02751 32-2477): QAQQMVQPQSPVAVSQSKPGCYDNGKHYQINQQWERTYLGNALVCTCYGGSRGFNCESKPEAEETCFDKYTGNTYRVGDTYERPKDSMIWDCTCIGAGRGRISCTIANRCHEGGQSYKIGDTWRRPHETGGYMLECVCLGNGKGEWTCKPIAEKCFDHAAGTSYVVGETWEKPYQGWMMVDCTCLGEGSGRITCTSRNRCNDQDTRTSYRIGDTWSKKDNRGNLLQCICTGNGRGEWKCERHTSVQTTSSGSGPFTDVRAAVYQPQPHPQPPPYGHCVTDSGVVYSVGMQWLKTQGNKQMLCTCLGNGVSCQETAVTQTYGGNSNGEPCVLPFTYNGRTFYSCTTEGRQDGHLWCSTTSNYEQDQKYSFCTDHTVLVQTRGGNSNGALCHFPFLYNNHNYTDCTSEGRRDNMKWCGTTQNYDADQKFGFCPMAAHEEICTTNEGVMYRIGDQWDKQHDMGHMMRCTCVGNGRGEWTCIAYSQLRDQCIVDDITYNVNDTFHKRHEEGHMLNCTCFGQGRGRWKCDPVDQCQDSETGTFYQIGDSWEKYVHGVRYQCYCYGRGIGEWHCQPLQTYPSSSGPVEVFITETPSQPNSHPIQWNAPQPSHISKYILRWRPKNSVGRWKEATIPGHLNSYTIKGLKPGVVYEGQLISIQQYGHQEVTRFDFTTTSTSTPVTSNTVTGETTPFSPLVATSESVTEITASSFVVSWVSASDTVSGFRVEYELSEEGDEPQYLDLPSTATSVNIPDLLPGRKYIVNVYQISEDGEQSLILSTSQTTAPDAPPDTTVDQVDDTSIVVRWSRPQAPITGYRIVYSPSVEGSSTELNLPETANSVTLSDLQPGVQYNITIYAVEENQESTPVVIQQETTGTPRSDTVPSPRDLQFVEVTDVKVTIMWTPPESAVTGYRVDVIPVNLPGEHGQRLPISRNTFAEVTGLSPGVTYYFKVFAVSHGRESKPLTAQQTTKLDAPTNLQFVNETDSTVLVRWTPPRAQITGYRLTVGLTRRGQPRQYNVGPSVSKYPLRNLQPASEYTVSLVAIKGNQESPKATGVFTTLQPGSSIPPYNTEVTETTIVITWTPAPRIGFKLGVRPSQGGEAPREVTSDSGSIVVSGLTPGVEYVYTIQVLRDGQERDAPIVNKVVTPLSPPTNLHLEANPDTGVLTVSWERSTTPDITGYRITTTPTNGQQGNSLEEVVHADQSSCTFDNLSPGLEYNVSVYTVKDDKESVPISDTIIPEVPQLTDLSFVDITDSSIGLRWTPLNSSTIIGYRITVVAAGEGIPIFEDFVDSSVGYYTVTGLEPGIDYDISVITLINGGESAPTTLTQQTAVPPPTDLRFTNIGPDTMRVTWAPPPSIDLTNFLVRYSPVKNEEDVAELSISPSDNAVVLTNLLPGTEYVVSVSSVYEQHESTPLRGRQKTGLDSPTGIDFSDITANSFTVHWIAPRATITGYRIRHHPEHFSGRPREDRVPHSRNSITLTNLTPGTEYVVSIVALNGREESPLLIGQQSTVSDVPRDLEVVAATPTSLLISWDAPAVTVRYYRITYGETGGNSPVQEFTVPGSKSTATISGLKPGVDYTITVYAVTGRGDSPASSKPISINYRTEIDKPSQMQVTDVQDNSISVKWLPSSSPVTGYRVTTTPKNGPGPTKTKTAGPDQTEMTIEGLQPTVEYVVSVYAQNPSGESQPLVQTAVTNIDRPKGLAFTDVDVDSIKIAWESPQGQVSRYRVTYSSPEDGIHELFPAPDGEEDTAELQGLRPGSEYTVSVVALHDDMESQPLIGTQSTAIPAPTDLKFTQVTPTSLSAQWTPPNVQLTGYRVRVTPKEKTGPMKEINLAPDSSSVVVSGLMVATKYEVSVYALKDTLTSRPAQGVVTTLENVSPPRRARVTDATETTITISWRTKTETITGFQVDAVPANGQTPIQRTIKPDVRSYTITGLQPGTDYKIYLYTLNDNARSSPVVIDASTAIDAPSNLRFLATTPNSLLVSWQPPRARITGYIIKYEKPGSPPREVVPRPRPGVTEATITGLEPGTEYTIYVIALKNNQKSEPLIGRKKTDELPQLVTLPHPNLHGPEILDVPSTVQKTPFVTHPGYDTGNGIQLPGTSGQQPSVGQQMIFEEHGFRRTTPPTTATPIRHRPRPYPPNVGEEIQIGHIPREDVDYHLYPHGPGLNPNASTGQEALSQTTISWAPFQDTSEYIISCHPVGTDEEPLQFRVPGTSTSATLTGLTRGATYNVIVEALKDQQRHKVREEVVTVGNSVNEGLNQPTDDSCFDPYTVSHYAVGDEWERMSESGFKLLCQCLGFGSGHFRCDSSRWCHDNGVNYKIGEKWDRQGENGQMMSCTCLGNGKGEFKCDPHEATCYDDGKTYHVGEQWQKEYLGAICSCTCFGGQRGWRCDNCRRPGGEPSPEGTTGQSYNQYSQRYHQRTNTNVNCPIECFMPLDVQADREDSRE
Sequence of yeast enolase (Sigma) (P00924 2-437): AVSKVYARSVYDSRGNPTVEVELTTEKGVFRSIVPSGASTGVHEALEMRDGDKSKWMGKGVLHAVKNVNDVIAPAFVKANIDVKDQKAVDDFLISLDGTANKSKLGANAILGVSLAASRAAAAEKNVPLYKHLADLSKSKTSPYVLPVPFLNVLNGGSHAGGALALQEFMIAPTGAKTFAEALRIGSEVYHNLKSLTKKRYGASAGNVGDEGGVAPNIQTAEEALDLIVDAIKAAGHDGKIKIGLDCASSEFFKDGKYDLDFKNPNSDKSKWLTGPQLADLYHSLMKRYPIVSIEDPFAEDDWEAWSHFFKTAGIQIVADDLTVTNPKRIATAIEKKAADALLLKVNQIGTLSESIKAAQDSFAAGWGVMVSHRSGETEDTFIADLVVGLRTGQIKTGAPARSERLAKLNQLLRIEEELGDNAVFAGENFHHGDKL

“yeast enolase (Sigma) (from UniProt P00924 2-437)” gave an inhibition of pneumococcal adherence to fibronectin coated wells of 98%.

— US20050048590A1
